According to patent US20160333098A1 (published 2016):
Blank lines part the entries; values can stand above or below the molecule they belong to.

Legend:
[1] = target: cell lines MCF-7, DU-145 and ME-180 carrying both IGF-1R and EGP-1; test: flow cytometry (FACScan), MCF-7 cells; structural control
[2] = target: EGP-1 expressed on cancer cell lines (MCF-7, DU-145, ME-180) (UniProt P09758); test: flow cytometry (FACScan), DU145 cells
[3] = target: EGP-1 expressed on cancer cell lines (MCF-7, DU-145, ME-180) (UniProt P09758); test: flow cytometry (FACScan), MCF-7 cells
[4] = target: EGP-1 expressed on cancer cell lines (MCF-7, DU-145, ME-180) (UniProt P09758); test: flow cytometry (FACScan), ME-180 cells
[5] = target: IGF-1R expressed on cancer cell lines (MCF-7L, MCF-7, CaPan1, DU-145, ME-180, Hep G2, HT-29, LNCaP) (human) (UniProt P08069); test: 125I-IGF-1 binding to MCF-7L cells, 0 ng/mL antibody (reference)
[6] = target: recombinant human IGF-1R (rhIGF-1R), immobilized on plates or polystyrene beads (human) (UniProt P08069); test: labeled antibody on rhIGF-1R-coated beads; competitor: unlabeled R1
[7] = target: IGF-1R expressed on cancer cell lines (MCF-7L, MCF-7, CaPan1, DU-145, ME-180, Hep G2, HT-29, LNCaP) (human) (UniProt P08069); test: 125I-IGF-1 binding to MCF-7L cells in the presence of 10 ng/mL antibody
[8] = target: recombinant human IGF-1R (rhIGF-1R), immobilized on plates or polystyrene beads (human) (UniProt P08069); test: labeled antibody on rhIGF-1R-coated beads; competitor: unlabeled MAB391
[9] = target: IGF-1R expressed on cancer cell lines (MCF-7L, MCF-7, CaPan1, DU-145, ME-180, Hep G2, HT-29, LNCaP) (human) (UniProt P08069); test: 125I-IGF-1 binding to MCF-7L cells in the presence of 100 ng/mL antibody
[10] = target: IGF-1R expressed on cancer cell lines (MCF-7L, MCF-7, CaPan1, DU-145, ME-180, Hep G2, HT-29, LNCaP) (human) (UniProt P08069); test: 125I-IGF-1 binding to MCF-7L cells in the presence of 1000 ng/mL antibody
[11] = target: recombinant human IGF-1R (rhIGF-1R), immobilized on plates or polystyrene beads (human) (UniProt P08069); test: labeled antibody on rhIGF-1R-coated beads; competitor: unlabeled 1-2
[12] = target: recombinant human IGF-1R (rhIGF-1R), immobilized on plates or polystyrene beads (human) (UniProt P08069); test: labeled antibody on rhIGF-1R-coated beads; competitor: unlabeled 1H7
[13] = target: recombinant human IGF-1R (rhIGF-1R), immobilized on plates or polystyrene beads (human) (UniProt P08069); test: labeled antibody on rhIGF-1R-coated beads; competitor: unlabeled 2C8
[14] = target: recombinant human IGF-1R (rhIGF-1R), immobilized on plates or polystyrene beads (human) (UniProt P08069); test: labeled antibody on rhIGF-1R-coated beads; competitor: unlabeled 3B7
[15] = target: recombinant human IGF-1R (rhIGF-1R), immobilized on plates or polystyrene beads (human) (UniProt P08069); test: labeled antibody on rhIGF-1R-coated beads; competitor: unlabeled cR1
[16] = target: recombinant human IGF-1R (rhIGF-1R), immobilized on plates or polystyrene beads (human) (UniProt P08069); test: labeled antibody on rhIGF-1R-coated beads; competitor: unlabeled hR1
[17] = target: recombinant human IGF-1R (rhIGF-1R), immobilized on plates or polystyrene beads (human) (UniProt P08069); test: labeled antibody on rhIGF-1R-coated beads; competitor: unlabeled 17-69
[18] = target: recombinant human IGF-1R (rhIGF-1R), immobilized on plates or polystyrene beads (human) (UniProt P08069); test: labeled antibody on rhIGF-1R-coated beads; competitor: unlabeled 24-31
[19] = target: recombinant human IGF-1R (rhIGF-1R), immobilized on plates or polystyrene beads (human) (UniProt P08069); test: labeled antibody on rhIGF-1R-coated beads; competitor: unlabeled 24-57
[20] = target: recombinant human IGF-1R (rhIGF-1R), immobilized on plates or polystyrene beads (human) (UniProt P08069); test: labeled antibody on rhIGF-1R-coated beads; competitor: unlabeled 24-60
[21] = target: recombinant human IGF-1R (rhIGF-1R), immobilized on plates or polystyrene beads (human) (UniProt P08069); test: labeled antibody on rhIGF-1R-coated beads; competitor: unlabeled αIR-3
[22] = target: cell lines MCF-7, DU-145 and ME-180 carrying both IGF-1R and EGP-1; test: flow cytometry (FACScan), MCF-7 cells; control
[23] = target: T1, recombinant human insulin receptor (rhIR), immobilized (human, UniProt P06213-2 28-944, limits assumed); test: ELISA on immobilized receptor
[24] = target: T2, recombinant human IGF-1R (rhIGF-1R), immobilized on plates or polystyrene beads (human, UniProt P08069 31-935); test: labeled antibody on rhIGF-1R-coated beads; competitor: unlabeled R1
T2 construct: also called immobilized recombinant human IGF-1R; IGF-1R-coated beads

[25] = target: T2, recombinant human IGF-1R (rhIGF-1R), …; test: labeled antibody on rhIGF-1R-coated beads; competitor: unlabeled 1-2
[26] = target: T2, recombinant human IGF-1R (rhIGF-1R), …; test: labeled antibody on rhIGF-1R-coated beads; competitor: unlabeled 1H7
[27] = target: T2, recombinant human IGF-1R (rhIGF-1R), …; test: labeled antibody on rhIGF-1R-coated beads; competitor: unlabeled 2C8
[28] = target: T2, recombinant human IGF-1R (rhIGF-1R), …; test: labeled antibody on rhIGF-1R-coated beads; competitor: unlabeled 3B7
[29] = target: T2, recombinant human IGF-1R (rhIGF-1R), …; test: labeled antibody on rhIGF-1R-coated beads; competitor: unlabeled cR1
[30] = target: T2, recombinant human IGF-1R (rhIGF-1R), …; test: labeled antibody on rhIGF-1R-coated beads; competitor: unlabeled hR1
[31] = target: T2, recombinant human IGF-1R (rhIGF-1R), …; test: labeled antibody on rhIGF-1R-coated beads; competitor: unlabeled 17-69
[32] = target: T2, recombinant human IGF-1R (rhIGF-1R), …; test: labeled antibody on rhIGF-1R-coated beads; competitor: unlabeled 24-31
[33] = target: T2, recombinant human IGF-1R (rhIGF-1R), …; test: labeled antibody on rhIGF-1R-coated beads; competitor: unlabeled 24-57
[34] = target: T2, recombinant human IGF-1R (rhIGF-1R), …; test: labeled antibody on rhIGF-1R-coated beads; competitor: unlabeled 24-60
[35] = target: T2, recombinant human IGF-1R (rhIGF-1R), …; test: labeled antibody on rhIGF-1R-coated beads; competitor: unlabeled αIR-3
[36] = target: T2, recombinant human IGF-1R (rhIGF-1R), …; test: labeled antibody on rhIGF-1R-coated beads; competitor: unlabeled MAB391
[37] = target: T2, recombinant human IGF-1R (rhIGF-1R), …; test: ELISA on immobilized rhIGF-1R (cR1 of clones 709.2D2 and 710.2G2, the same value for each)
[38] = target: T1, recombinant human insulin receptor …; test: hybridoma screening; method not described

Sequence of EGP-1 expressed on cancer cell lines (MCF-7, DU-145, ME-180) (P09758 27-323): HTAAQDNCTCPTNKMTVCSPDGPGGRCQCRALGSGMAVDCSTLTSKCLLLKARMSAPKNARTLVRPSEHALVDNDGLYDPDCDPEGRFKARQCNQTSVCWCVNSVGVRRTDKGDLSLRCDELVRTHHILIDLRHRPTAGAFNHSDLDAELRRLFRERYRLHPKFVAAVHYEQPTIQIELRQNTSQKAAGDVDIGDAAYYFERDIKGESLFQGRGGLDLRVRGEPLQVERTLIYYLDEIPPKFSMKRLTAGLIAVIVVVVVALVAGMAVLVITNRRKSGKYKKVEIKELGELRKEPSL
T1 sequence (P06213 other isoform, or with tags, fused parts or gaps limits assumed): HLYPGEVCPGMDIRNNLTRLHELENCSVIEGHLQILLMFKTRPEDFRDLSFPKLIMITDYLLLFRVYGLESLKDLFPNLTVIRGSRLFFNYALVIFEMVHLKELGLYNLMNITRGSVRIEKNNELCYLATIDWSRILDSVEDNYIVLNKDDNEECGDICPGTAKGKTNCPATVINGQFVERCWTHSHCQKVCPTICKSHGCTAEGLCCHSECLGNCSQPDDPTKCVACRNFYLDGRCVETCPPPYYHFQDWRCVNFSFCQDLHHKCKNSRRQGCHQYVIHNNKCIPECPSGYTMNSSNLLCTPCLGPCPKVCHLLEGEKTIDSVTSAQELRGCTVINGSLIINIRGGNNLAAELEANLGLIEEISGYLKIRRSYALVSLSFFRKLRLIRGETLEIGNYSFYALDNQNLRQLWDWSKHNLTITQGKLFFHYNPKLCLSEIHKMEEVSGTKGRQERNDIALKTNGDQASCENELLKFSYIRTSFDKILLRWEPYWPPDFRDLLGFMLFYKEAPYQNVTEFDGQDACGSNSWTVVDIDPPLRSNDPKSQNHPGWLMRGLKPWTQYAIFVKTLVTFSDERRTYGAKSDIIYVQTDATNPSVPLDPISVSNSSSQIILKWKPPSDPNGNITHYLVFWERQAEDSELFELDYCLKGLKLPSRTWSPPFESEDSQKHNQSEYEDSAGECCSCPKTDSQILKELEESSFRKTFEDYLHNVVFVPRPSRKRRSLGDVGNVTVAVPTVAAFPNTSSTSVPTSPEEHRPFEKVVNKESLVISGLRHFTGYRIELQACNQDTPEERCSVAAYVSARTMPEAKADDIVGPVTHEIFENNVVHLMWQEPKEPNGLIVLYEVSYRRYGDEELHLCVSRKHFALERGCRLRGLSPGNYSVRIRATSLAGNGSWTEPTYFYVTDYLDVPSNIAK

Molecule: DNL construct 22-20 (hLL2 IgG-AD2 with hA20 Fab-DDD2) (bispecific antibody)
% Positive [1]: 3.1%
MFI [1]: 2.11

Molecule: anti-IGF-1R antibody 24-60
% binding [6]: 0%
% binding [11]: 100%
% binding [12]: 100%
% binding [13]: 88%
% binding [14]: 79%
% binding [15]: 0%
% binding [16]: 0%
% binding [17]: 82%
% binding [18]: 18%
% binding [19]: 88%
% binding [20]: 0%
% binding [21]: 21%
% binding [8]: 0%

Molecule: anti-IGF-1R antibody αIR-3
% binding [6]: 86%
% binding [11]: 95%
% binding [12]: 115%
% binding [13]: 97%
% binding [14]: 76%
% binding [15]: 97%
% binding [16]: 107%
% binding [17]: 89%
% binding [18]: 52%
% binding [19]: 87%
% binding [20]: 0%
% binding [21]: 0%
% binding [8]: 0%

Molecule: human IgG (control in Table 5) (antibody)
% Positive [22]: 2.34%
MFI [22]: 1.84

B3: humanized R1 (hR1) (antibody, V domains shown)
VH: QVQLQESGGGVVQPGRSLRLSCSASGFTFSDYYMYWVRQAPGKGLEWVAYITNYGGSTYYPDTVKGRFTISRDNAKNTLFLQMDSLRPEDTGVYFCARQSNYDYDGWFAYWGQGTPVTVSS
VL: DIQLTQSPSSLSASVGDRVTITCKASQEVGTAVAWYQQKPGKAPKLLIYWASTRHTGVPSRFSGSGSGTDFTFTISSLQPEDIATYFCQQYSNYPLTFGQGTKVEIKR
notes: also called hR1 IgG; production clone 711.3C11
% binding [24]: 0%
% binding [25]: 100%
% binding [26]: 131%
% binding [27]: 100%
% binding [28]: 100%
% binding [29]: 0%
% binding [30]: 0%
% binding [31]: 100%
% binding [32]: 100%
% binding [33]: 100%
% binding [34]: 71%
% binding [35]: 136%
% binding [36]: 121%

Next, values leading:

% Positive [2]: 93.7%
MFI [2]: 17
% Positive [3]: 99.9%
MFI [3]: 35.7
% Positive [4]: 100%
MFI [4]: 59.6
Molecule: Hex-hRS7, monospecific hexavalent DNL construct (hRS7 IgG-AD2 with hRS7 Fab-DDD2) (antibody)

% binding of 125I-IGF-1 [5]: 100%
% binding [6]: 40%
% binding of 125I-IGF-1 [7]: 95%
% binding [8]: 0%
% binding of 125I-IGF-1 [9]: 54%
% binding of 125I-IGF-1 [10]: 38%
Molecule: MAB391, commercially available mouse anti-IGF-1R monoclonal antibody

% Positive [2]: 82.8%
MFI [2]: 10.6
% Positive [3]: 99.2%
MFI [3]: 21.4
% Positive [4]: 100%
MFI [4]: 35.5
Molecule: hRS7, humanized anti-EGP-1 antibody

binding result [23]: no binding
% binding [24]: 0%
% binding [25]: 100%
% binding [26]: 125%
% binding [27]: 100%
% binding [28]: 106%
% binding [29]: 0%
% binding [30]: 0%
% binding [31]: 100%
% binding [32]: 100%
% binding [33]: 100%
% binding [34]: 40%
% binding [35]: 128%
% binding [36]: 108%
Kd [37]: ~0.1 nM
B1: chimeric R1 (cR1) (antibody, V domains shown)
VH: EVKLVESGGGLVQPGGSLKLSCATSGFTFSDYYMYWVRQTPEKRLEWVAYITNYGGSTYYPDTVKGRFTISRDNAKNTLYLQMSRLRSEDTAMYFCARQSNYDYDGWFAYWGQGTTVTVSS
VL: DIVMTQSHKFMSTSVGDRVSITCKASQEVGTAVAWYQQKPGQSPKLLIYWASTRHTGVPDRFTGSGSGTDFTLTISNVQSEDLADYFCQQYSNYPLTFGAGAKLELKR
notes: R1 variable domains on human constant regions of the pdHL2 vector (cR1pdHL2); also called mouse-human chimeric mAb of R1; clones 709.2D2 and 710.2G2

binding result [38]: no binding
% binding [24]: 0%
% binding [25]: 100%
% binding [26]: 150%
% binding [27]: 100%
% binding [28]: 117%
% binding [29]: 0%
% binding [30]: 0%
% binding [31]: 100%
% binding [32]: 100%
% binding [33]: 100%
% binding [34]: 43%
% binding [35]: 143%
% binding [36]: 100%
B2: mouse anti-IGF-1R antibody R1 (ML04R1) (antibody, V domains shown)
VH: B1 VH
VL: B1 VL
notes: Used unlabeled or tagged with a fluorescent probe (PE); also called murine R1; clone C-11
